The source of these data is the Human Domainome abundance scans (Beltran et al. 2025).

± gives the uncertainty stated by the source.

The data set can be described thus: abundance fitness (aPCA) (normalised: wild type 0, dead -1); higher = more abundant; growth selection in yeast, the domain comes from the species named. Particulars: Homo sapiens.
The substance “E3 ubiquitin-protein ligase NEDD4-like D204A, Q96PU5” registered an abundance fitness of -0.392 ± 0.068.
On to “E3 ubiquitin-protein ligase NEDD4-like D204C, Q96PU5”, for which the abundance fitness is -0.151 ± 0.099.
The figure for “E3 ubiquitin-protein ligase NEDD4-like D204E, Q96PU5” is -0.505 ± 0.089; for “E3 ubiquitin-protein ligase NEDD4-like D204G, Q96PU5” it is -0.491 ± 0.057.
In the case of “E3 ubiquitin-protein ligase NEDD4-like D204H, Q96PU5”, the abundance fitness is -0.684 ± 0.14.
Consider “E3 ubiquitin-protein ligase NEDD4-like D204I, Q96PU5”, for which the abundance fitness was -1.04 ± 0.17.
Substance “E3 ubiquitin-protein ligase NEDD4-like D204K, Q96PU5” yielded an abundance fitness of -0.894 ± 0.13.
The substance “E3 ubiquitin-protein ligase NEDD4-like D204L, Q96PU5” displayed an abundance fitness of -0.803 ± 0.072.
“E3 ubiquitin-protein ligase NEDD4-like D204M, Q96PU5” had an abundance fitness of -0.751 ± 0.075.
With “E3 ubiquitin-protein ligase NEDD4-like D204N, Q96PU5”, the abundance fitness is -0.451 ± 0.14.
The same measure for “E3 ubiquitin-protein ligase NEDD4-like D204P, Q96PU5”: -0.897 ± 0.15; for “E3 ubiquitin-protein ligase NEDD4-like D204Q, Q96PU5”: -0.668 ± 0.077; for “E3 ubiquitin-protein ligase NEDD4-like D204R, Q96PU5”: -1.03 ± 0.062.
“E3 ubiquitin-protein ligase NEDD4-like D204S, Q96PU5” gave an abundance fitness of -0.037 ± 0.064.
In turn, “E3 ubiquitin-protein ligase NEDD4-like D204V, Q96PU5” showed an abundance fitness of -0.908 ± 0.074.
Consider “E3 ubiquitin-protein ligase NEDD4-like D204W, Q96PU5”, for which the abundance fitness was -1.4 ± 0.12.
For the substance “E3 ubiquitin-protein ligase NEDD4-like D228A, Q96PU5”, the abundance fitness is -0.091 ± 0.07.
The figure for “E3 ubiquitin-protein ligase NEDD4-like D228C, Q96PU5” is -0.332 ± 0.067; for “E3 ubiquitin-protein ligase NEDD4-like D228E, Q96PU5” it is 0.062 ± 0.09; for “E3 ubiquitin-protein ligase NEDD4-like D228F, Q96PU5” it is -0.329 ± 0.11.
The figure for “E3 ubiquitin-protein ligase NEDD4-like D228G, Q96PU5” is 0.031 ± 0.056.
“E3 ubiquitin-protein ligase NEDD4-like D228H, Q96PU5” had an abundance fitness of 0.122 ± 0.079.
Consider “E3 ubiquitin-protein ligase NEDD4-like D228I, Q96PU5”, for which the abundance fitness is -0.474 ± 0.12.
The same measure for “E3 ubiquitin-protein ligase NEDD4-like D228K, Q96PU5”: -0.002 ± 0.079.
The same measure for “E3 ubiquitin-protein ligase NEDD4-like D228L, Q96PU5”: -0.14 ± 0.062.
In the case of “E3 ubiquitin-protein ligase NEDD4-like D228M, Q96PU5”, the abundance fitness is -0.175 ± 0.099.
The same measure for “E3 ubiquitin-protein ligase NEDD4-like D228N, Q96PU5”: 0.063 ± 0.097; for “E3 ubiquitin-protein ligase NEDD4-like D228P, Q96PU5”: 0.099 ± 0.07.
For the substance “E3 ubiquitin-protein ligase NEDD4-like D228Q, Q96PU5”, the abundance fitness was -0.277 ± 0.085.
As for “E3 ubiquitin-protein ligase NEDD4-like D228R, Q96PU5”, the abundance fitness is -0.101 ± 0.061.
The same measure for “E3 ubiquitin-protein ligase NEDD4-like D228S, Q96PU5”: -0.053 ± 0.059.
The substance “E3 ubiquitin-protein ligase NEDD4-like D228T, Q96PU5” registered an abundance fitness of 0.042 ± 0.076.
“E3 ubiquitin-protein ligase NEDD4-like D228V, Q96PU5”: the abundance fitness was -0.159 ± 0.071.
“E3 ubiquitin-protein ligase NEDD4-like D228W, Q96PU5” yielded an abundance fitness of -0.419 ± 0.064.
